# Measured values: patent US12366572B2, “Activation of bioluminescence by structural complementation” (Promega Corporation, priority 2013, dated 2025)
# Experiments:
# [1] = Luminescence of NLpoly without NLpep, E. coli clarified lysate (Example 57); assay type: biochemical; details: E. coli clarified lysate + NanoGlo+Fz
# Description: 50 μL of each lysate and 50 uL NanoGlo+Fz were mixed and incubated for 5 min RT. Luminescence was measured on GloMax® Multi+ with 0.5 sec integration.
# [2] = system: NLpep78-HT or NLpep79-HT; assay: Luminescence of NLpoly variants without NLpep or with NLpep78-HT / NLpep79-HT (Example 93); assay type: biochemical; details: E. coli expression culture
# [3] = system: wt Oplophorus 157-169 peptide; assay: Relative specific activity in HEK293T lysates (Example 143); assay type: biochemical; details: averages of Vmax and Bmax normalized to NanoLuc
# Description: Each clone was inserted into pFN21A HaloTag® CMV Flexi® Vector (Promega G2821), and lysates were prepared as follows: 3 ml HEK293T cells that have been diluted to a concentration of 200,000 cells/ml (600,000 cells total) were plated into each well of a 6-well plate and grown overnight at 37° C. in a CO2 incubator. The following day transfection complexes of each DNA were prepared by combining […] of DNA, Opti-MEM® (Life Technologies 11058-021) to a final volume of 310 μl and 20 μl of FuGENE® HD (Promega E231a). The transfection complexes were incubated for 20 minutes and then 150 μl of each complex added in duplicate to cells. The cells were grown overnight 37° C. in a CO2 incubator. The following day, the cells were washed cells with DPBS (Life Technologies 14190-144), and 1 ml fresh DPBS added. Cells were frozen to lyse and then thawed for testing. Duplicate transfection reactions lysates were combined.
# In order to compare the specific activities of Nluc (full length enzyme) to wt Oplophorusl-156 and NLpoly11S in combination with wt Oplophorus 157-169 peptide (binary proteins), substrate titrations were run for all of the samples, but for the binary samples substrate titrations were run at multiple peptide concentrations. Using this format, it was possible to calculate a Vmax value for Nluc and both Vmax and Bmax values for NLpoly11S and wt Oplophorus 1-156. Three separate experiments were run using this format and Vmax and Bmax values were normalized to the Vmax of NanoLuc. Relative specific activities (calculated as averages of Vmax and Bmax) are normalized to NanoLuc.
# [4] = Substrate specificity of NLpoly 5P and 11S with NLpep79 (Example 97); assay type: biochemical
# Description: E. coli clarified lysates were prepared for NLpoly 5P or 11S as described previously. The NLpoly lysates were then serially diluted in steps of 10-fold into PBS+0.1% Prionex.
# [5] = molecular target: T1, […] peptide (Oplophorus gracilirostris, UniProt Q9GV45); assay: Non-luminescent polypeptide mutant luminescence after complementation with peptide (Example 5, Table 4); details: E. coli culture of polypeptide mutant + 1x peptide solution; NANOGLO reagent
# [6] = molecular target: T1, […] peptide; assay: as above; details: E. coli culture of polypeptide mutant + 1x peptide solution; NANOGLO reagent; remark: listed apart in the source
Molecule,"Luminescence in the absence of NLpep, higher than WT NLpoly [1] [fold]",Luminescence without NLpep or with NLpep78 or NLpep79 [2],Relative specific activity (*with wt 157-169 peptide) [3],Substrate specificity for furimazine [4],Luminescence with […] [5],Luminescence with […] [6]
11S: evolved non-luminescent polypeptide variant 11S (12S-51) (protein) MVFTLEDFVGDWEQTAAYNLDQVLEQGGVSSLLQNLAVSVTPIQRIVRSGENALKIDIHVIIPYEGLSADQMAQIEEVFKVVYPVDDHHFKVILPYGTLVIDGVTPNMLNYFGRPYEGIAVFDGKKITVTGTLWNGNKIIDERLITPDGSMLFRVTINS,~500,improved luminescence over the other variants,0.18*,superior specificity for furimazine than 5P,,
L149M (protein) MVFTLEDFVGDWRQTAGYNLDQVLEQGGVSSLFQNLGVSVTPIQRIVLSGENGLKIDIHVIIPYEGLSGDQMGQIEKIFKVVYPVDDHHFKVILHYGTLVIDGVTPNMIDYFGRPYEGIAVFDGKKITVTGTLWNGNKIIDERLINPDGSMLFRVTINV,,,,,2.89 RLU(mutant)/RLU(WT),2.16 RLU(mutant)/RLU(WT)
